Legend:
[1] = system: SARS-CoV-2; assay: SARS-CoV-2 cytopathic effect inhibition by lactoferrin at various pH levels in Vero E6 cells; type: cell-based, SARS-CoV-2 (strain COV2019 Italy/INM11); conditions: for average neutralizing titer: lactoferrin 10 mg/mL
[2] = system: SARS-CoV-2; assay: Cyclodextrin testing: antiviral activity against SARS-CoV-2 in Vero E6 cells (CPE); type: cell-based; conditions: pH 7; lactoferrin alone 10 mg/mL, cyclodextrin alone 10 mg/mL, or lactoferrin 5 mg/mL + cyclodextrin 10 mg/mL
[3] = system: Vero cells; conditions: 10 mg/mL lactoferrin, incubated up to 72 hours
[4] = system: Vero E6 cells; conditions: control without virus, 10 mg/mL
[5] = system: SARS-CoV-2; conditions: patients with SARS-CoV-2, after oral administration; cited from earlier work

B1: lactoferrin (protein, UniProt P02788 20-710, looked up)
Lactotransferrin: GRRRSVQWCAVSQPEATKCFQWQRNMRKVRGPPVSCIKRDSPIQCIQAIAENRADAVTLDGGFIYEAGLAPYKLRPVAAEVYGTERQPRTHYYAVAVVKKGGSFQLNELQGLKSCHTGLRRTAGWNVPIGTLRPFLNWTGPPEPIEAAVARFFSASCVPGADKGQFPNLCRLCAGTGENKCAFSSQEPYFSYSGAFKCLRDGAGDVAFIRESTVFEDLSDEAERDEYELLCPDNTRKPVDKFKDCHLARVPSHAVVARSVNGKEDAIWNLLRQAQEKFGKDKSPKFQLFGSPSGQKDLLFKDSAIGFSRVPPRIDSGLYLGSGYFTAIQNLRKSEEEVAARRARVVWCAVGEQELRKCNQWSGLSEGSVTCSSASTTEDCIALVLKGEADAMSLDGGYVYTAGKCGLVPVLAENYKSQQSSDPDPNCVDRPVEGYLAVAVVRRSDTSLTWNSVKGKKSCHTAVDRTAGWNIPMGLLFNQTGSCKFDEYFSQSCAPGSDPRSNLCALCIGDEQGENKCVPNSNERYYGYTGAFRCLAENAGDVAFVKDVTVLQNTDGNNNEAWAKDLKLADFALLCLDGKRKPVTEARSCHLAMAPNHAVVSRMDKVERLKQVLLHQQAKFGRNGSDCPDKFCLFQSETKNLLFNDNTECLARLHGKTTYEKYLGPQYVAGITNLKKCSTSPLLEACEFLRK
notes: stock solution in water at 10 mg/mL
- inhibitory effect on viral infection in Vero cells ([1]; cells pre-incubated with lactoferrin 0.313-10 mg/mL for one hour): showed an inhibitory effect
- average neutralizing titer ([1]; pH 4): 452
- average neutralizing titer ([1]; pH 7): 40
- lactoferrin concentration of maximum inhibitory effect ([1]; pH 4, 5, and 6): 5 mg/mL
- antiviral efficacy ([1]; pH 7): consistent low efficacy
- inhibitory effect on viral infection ([1]; without the pre-incubation step, any pH): no inhibitory effect
- antiviral activity (cytopathic effect) [2]: did not show antiviral activity
- cellular cytotoxicity [3]: No cellular cytotoxicity
- cytopathic effect on the cells [4]: neither the lactoferrin alone (10 mg/mL) or the cyclodextrin alone (10 mg/mL) had a cytopathic effect
- time to reduced severity and duration of disease [5]: 4 to 5 days

From patent publication US20210361750A1, “Anti-Viral Lactoferrin Facemask” (priority 2020, published 2021)
